Assay results: patent publication US20240360201A1 (BIOCYTOGEN PHARMACEUTICALS BEIJING, published 2024)

T1: His-tagged recombinant mouse IL12RB2 protein (mIL12R-B2-His) (mouse, UniProt P97378 24-637, limits assumed)
T1 construct: bought
T1 sequence (looked up): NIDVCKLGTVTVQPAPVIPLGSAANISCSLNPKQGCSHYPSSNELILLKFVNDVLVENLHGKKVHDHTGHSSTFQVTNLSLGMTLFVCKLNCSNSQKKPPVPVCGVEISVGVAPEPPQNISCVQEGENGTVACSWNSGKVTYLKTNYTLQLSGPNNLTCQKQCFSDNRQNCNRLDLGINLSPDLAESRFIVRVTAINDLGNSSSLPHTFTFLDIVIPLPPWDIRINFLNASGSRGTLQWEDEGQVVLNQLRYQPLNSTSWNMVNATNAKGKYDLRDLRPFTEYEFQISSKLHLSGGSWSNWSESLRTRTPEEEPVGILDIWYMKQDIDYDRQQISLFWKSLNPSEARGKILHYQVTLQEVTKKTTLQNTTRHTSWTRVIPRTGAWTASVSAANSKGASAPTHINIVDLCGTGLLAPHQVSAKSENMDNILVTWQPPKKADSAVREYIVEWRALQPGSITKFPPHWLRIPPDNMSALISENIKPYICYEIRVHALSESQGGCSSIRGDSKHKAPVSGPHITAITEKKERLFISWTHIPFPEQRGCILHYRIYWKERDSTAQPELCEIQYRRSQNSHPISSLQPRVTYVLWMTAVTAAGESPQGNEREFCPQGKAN


Legend:
[1] = molecular target: T2, 6×Histidine-tagged human PD-L1 protein (hPDL1-His) (human, UniProt Q9NZQ7 19-238); experiment: SPR Biacore T200; binder captured on protein A chip, target as analyte
T2 construct: also called hPL1-His; His-tagged human PD-L1

[2] = molecular target: T2, 6×Histidine-tagged human PD-L1 protein …; experiment: SPR Biacore T200; binder captured on protein A chip, hPL1-His 1.5625-200 nM as analyte
Procedure: Dissociation was monitored for 400 seconds. The chip was regenerated after the last injection of each titration with Glycine (pH 2.0, 30 μL/min for 12 seconds). As a person of ordinary skill in the art would understand, the same method with appropriate adjustments for parameters (e.g., fusion protein concentration) was performed for each tested fusion protein.
Kinetic association rates (kon) and dissociation rates (koff) were obtained simultaneously by fitting the data globally to a 1:1 Langmuir binding model (Karlsson, R. Roos, H. Fagerstam, L. Petersson, B., 1994. Methods Enzymology 6. 99-110) using Biacore™ T200 Evaluation Software 3.0. Affinities were calculated from the quotient of the kinetic rate constants (KD=koff/kon). […] Non-specific effects were not observed.

[3] = molecular target: T2, 6×Histidine-tagged human PD-L1 protein …; experiment: SPR Biacore T200; binder captured on protein A chip, target as analyte; remark: listed apart in the source
[4] = molecular target: T1, His-tagged recombinant mouse IL12RB2 …; experiment: as above

T2 sequence (Q9NZQ7 19-238 limits assumed): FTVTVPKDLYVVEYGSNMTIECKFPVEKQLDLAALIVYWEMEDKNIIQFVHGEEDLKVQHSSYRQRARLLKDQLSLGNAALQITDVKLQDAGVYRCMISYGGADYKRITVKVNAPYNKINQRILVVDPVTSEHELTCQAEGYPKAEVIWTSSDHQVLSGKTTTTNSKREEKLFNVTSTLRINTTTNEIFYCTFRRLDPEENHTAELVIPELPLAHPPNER

Binder | Kd [1] [nM] | koff [1] [s⁻¹] | kon [1] [M⁻¹ s⁻¹] | Kd [2] [nM] | koff [2] [s⁻¹] | kon [2] [M⁻¹ s⁻¹] | Kd [3] [nM] | koff [3] [s⁻¹] | kon [3] [M⁻¹ s⁻¹] | Kd [4] [nM] | koff [4] [s⁻¹] | kon [4] [M⁻¹ s⁻¹]
PDL1-3F2 (antibody, human IgG1, kappa, also called PDL1-3F2-IgG1; PDL1-3F2 IgG1) heavy: not shown light: DIVLTQSPDFQSVTPKEKVTITCRASQSISNNLHWYQQKPDESPKLLIKYASQSISGIPSRFSGSGSGTDFTLTINSVEAEDFAMYFCQQSKSWPFTFGQGTRLEIKRTVAAPSVFIFPPSDEQLKSGTASVVCLLNNFYPREAKVQWKVDNALQSGNSQESVTEQDSKDSTYSLSSTLTLSKADYEKHKVYACEVTHQGLSSPVTKSFNRGEC | 0.372 | 0.000652 | 1.75e+06 | 0.559 | 0.0013 | 2.32e+06 | 0.372 | 0.000652 | 1.75e+06 |  |  | 
3F2-hIL21-3A (antibody, IgG1, IgG1) heavy: not shown light: DIVLTQSPDFQSVTPKEKVTITCRASQSISNNLHWYQQKPDESPKLLIKYASQSISGIPSRFSGSGSGTDFTLTINSVEAEDFAMYFCQQSKSWPFTFGQGTRLEIKRTVAAPSVFIFPPSDEQLKSGTASVVCLLNNFYPREAKVQWKVDNALQSGNSQESVTEQDSKDSTYSLSSTLTLSKADYEKHKVYACEVTHQGLSSPVTKSFNRGEC |  |  |  |  |  |  | 0.515 | 0.000613 | 1.19e+06 |  |  | 
3F2-mIL12-3A (antibody, IgG1, IgG1; IL12b co-expressed; also called 3F2-mIL12-3A-IgG1) heavy: QVQLQESGPGLVKPSETLSLTCTVSGYSITSGYNWHWIRQFPGNGLEWMGYIHHSSITNYNPSLKSRITISRDTSKNQFSLKLSSVTAADTATYYCAREGYDYDWFAYWGQGTLVTVSSASTKGPSVFPLAPSSKSTSGGTAALGCLVKDYFPEPVTVSWNSGALTSGVHTFPAVLQSSGLYSLSSVVTVPSSSLGTQTYICNVNHKPSNTKVDKKVEPKSCDKTHTCPPCPAPELLGGPSVFLFPPKPKDTLMISRTPEVTCVVVDVSHEDPEVKFNWYVDGVEVHNAKTKPREEQYNSTYRVVSVLTVLHQDWLNGKEYKCKVSNKALPAPIEKTISKAKGQPREPQVYTLPPSRDEGGGGSGGGGSVIPVSGPARCLSQSRNLLKTTDDMVKTAREKLKHYSCTAEDIDHEDITRDQTSTLKTCLPLELHKNESCLATRETSSTTRGSCLPPQKTSLMMTLCLGSIYEDLKMYQTEFQAINAALQNHNHQQIILDKGMLVAIDELMQSLNHNGETLRQKPPVGEADPYRVKMKLCILLHAFSTRVVTINRVMGYLSSAGGGGSGGGGSVSLTCLVKGFYPSDIAVEWESNGQPENNYKTTPPVLDSDGSFFLYSKLTVDKSRWQQGNVFSCSVMHEALHNHYTQKSLSLSPGK light: DIVLTQSPDFQSVTPKEKVTITCRASQSISNNLHWYQQKPDESPKLLIKYASQSISGIPSRFSGSGSGTDFTLTINSVEAEDFAMYFCQQSKSWPFTFGQGTRLEIKRTVAAPSVFIFPPSDEQLKSGTASVVCLLNNFYPREAKVQWKVDNALQSGNSQESVTEQDSKDSTYSLSSTLTLSKADYEKHKVYACEVTHQGLSSPVTKSFNRGEC MWELEKDVYVVEVDWTPDAPGETVNLTCDTPEEDDITWTSDQRHGVIGSGKTLTITVKEFLDAGQYTCHKGGETLSHSHLLLHKKENGIWSTEILKNFKNKTFLKCEAPNYSGRFTCSWLVQRNMDLKFNIKSSSSSPDSRAVTCGMASLSAEKVTLDQRDYEKYSVSCQEDVTCPTAEETLPIELALEARQQNKYENYSTSFFIRDIIKPDPPKNLQMKPLKNSQVEVSWEYPDSWSTPHSYFSLKFFVRIQRKKEKMKETEEGCNQKGAFLVEKTSTEVQCKGGNVCVQAQDRYYNSSCSKWACVPCRVRS |  |  |  | 0.382 | 0.000952 | 2.49e+06 |  |  |  | 58.5 | 0.00335 | 57300
3F2-hIL7-3A-mIFNa4 (antibody, IgG1, IgG1) heavy: QVQLQESGPGLVKPSETLSLTCTVSGYSITSGYNWHWIRQFPGNGLEWMGYIHHSSITNYNPSLKSRITISRDTSKNQFSLKLSSVTAADTATYYCAREGYDYDWFAYWGQGTLVTVSSASTKGPSVFPLAPSSKSTSGGTAALGCLVKDYFPEPVTVSWNSGALTSGVHTFPAVLQSSGLYSLSSVVTVPSSSLGTQTYICNVNHKPSNTKVDKKVEPKSCDKTHTCPPCPAPELLGGPSVFLFPPKPKDTLMISRTPEVTCVVVDVSHEDPEVKFNWYVDGVEVHNAKTKPREEQYNSTYRVVSVLTVLHQDWLNGKEYKCKVSNKALPAPIEKTISKAKGQPREPQVYTLPPSRDEGGGGSGGGGSDCDIEGKDGKQYESVLMVSIDQLLDSMKEIGSNCLNNEFNFFKRHICDANKEGMFLFRAARKLRQFLKMNSTGDFDLHLLKVSEGTTILLNCTGQVKGRKPAALGEAQPTKSLEENKSLKEQKKLNDLCFLKRLLQEIKTCWNKILMGTKEHGGGGSGGGGSVSLTCLVKGFYPSDIAVEWESNGQPENNYKTTPPVLDSDGSFFLYSKLTVDKSRWQQGNVFSCSVMHEALHNHYTQKSLSLSPGKGGGGSGGGGSGGGGSGGGGSCDLPHTYNLGNKRALTVLEEMRRLPPLSCLKDRKDFGFPLEKVDNQQIQKAQAILVLRDLTQQILNLFTSKDLSATWNATLLDSFCNDLHQQLNDLKACVMQEPPLTQEDSLLAVRTYFHRITVYLRKKKHSLCAWEVIRAEVWRALSSSTNLLARLSEEKE light: DIVLTQSPDFQSVTPKEKVTITCRASQSISNNLHWYQQKPDESPKLLIKYASQSISGIPSRFSGSGSGTDFTLTINSVEAEDFAMYFCQQSKSWPFTFGQGTRLEIKRTVAAPSVFIFPPSDEQLKSGTASVVCLLNNFYPREAKVQWKVDNALQSGNSQESVTEQDSKDSTYSLSSTLTLSKADYEKHKVYACEVTHQGLSSPVTKSFNRGEC | 0.685 | 0.000803 | 1.17e+06 |  |  |  |  |  |  |  |  | 
3F2-hIL21-3A-mIFNa4 (antibody, IgG1, IgG1) heavy: not shown light: DIVLTQSPDFQSVTPKEKVTITCRASQSISNNLHWYQQKPDESPKLLIKYASQSISGIPSRFSGSGSGTDFTLTINSVEAEDFAMYFCQQSKSWPFTFGQGTRLEIKRTVAAPSVFIFPPSDEQLKSGTASVVCLLNNFYPREAKVQWKVDNALQSGNSQESVTEQDSKDSTYSLSSTLTLSKADYEKHKVYACEVTHQGLSSPVTKSFNRGEC |  |  |  |  |  |  | 0.613 | 0.00072 | 1.17e+06 |  |  | 
